According to patent US20230181640A1 (SHANGHAI ABELZETA, published 2023):

B2: hBCMA-ECD-Fc (fusion protein of human BCMA extracellular domain Met1-Ala54 and human IgG1 Fc fragment Pro100-Lys330) (Fc fusion, UniProt Q02223 1-54, looked up)
chain: MLQMAGQCSQNEYFDSLLHACIPCQLRCSSNTPPLTCQRYCNASVTNSVKGTNA
notes: range 1-54; also the immunogen; also called soluble extracellular domain of human BCMA; not shown: human IgG1 Fc fragment, Pro100-Lys330

Assays:
[1] = molecular target: B2; test: ELISA, chimeric antibody supernatant
[2] = molecular target: T1, human BCMA on cells (L-BCMA+, K562-BCMA+, A549-BCMA-1D6) (human, UniProt Q02223 1-184); test: FACS, chimeric antibody supernatant, L-BCMA+ cells
T1 construct: whole, on cells; the cell line of each assay is named under assay; also called L-BCMA-1E6-A4; K562-BCMA-B22D8
T1 sequence (looked up): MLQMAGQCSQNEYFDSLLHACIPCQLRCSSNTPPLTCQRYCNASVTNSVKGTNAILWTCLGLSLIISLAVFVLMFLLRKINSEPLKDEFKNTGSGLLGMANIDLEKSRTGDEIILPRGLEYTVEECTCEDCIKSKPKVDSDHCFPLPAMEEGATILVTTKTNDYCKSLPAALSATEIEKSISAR

[3] = molecular target: T2, hybridoma antibody 6G10-1D7 (mAb001); test: flow cytometry competition: hBCMA-ECD-Fc against K562-BCMA+ cells for mAb001 at 1 µg/ml
T2 construct: tested as supernatant and purified; also called CP01

[4] = molecular target: T2, hybridoma antibody 6G10-1D7 (mAb001); test: flow cytometry competition: BCMA of K562-BCMA+ supernatant against K562-BCMA+ cells for mAb001 at 1 µg/ml

T2 sequence (VH, as listed by the source, chain 1 of 2): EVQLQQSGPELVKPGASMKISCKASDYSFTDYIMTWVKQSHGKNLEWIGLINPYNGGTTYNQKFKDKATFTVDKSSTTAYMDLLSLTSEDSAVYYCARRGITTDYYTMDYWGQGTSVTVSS
T2 sequence (VL, as listed by the source, chain 2 of 2): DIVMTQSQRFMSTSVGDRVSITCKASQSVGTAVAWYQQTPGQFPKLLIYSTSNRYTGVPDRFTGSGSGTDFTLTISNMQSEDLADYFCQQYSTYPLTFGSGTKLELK

B1: chimeric antibody 107A9A4D2VH/VL-1 (antibody, human IgG1, kappa, V domains shown)
VH: EVQLQQSGPVLVKPGASVKMSCKASGYTFTDLYMNWLKQSHGKRLEWIGVINPYNGGTSYNQKFKGKATLTVDKSSSTAYMDLNSLTSEDSAVYYCARGDSIYVMDYWGQGTSFTVSS
VL: ENVLTQSPAIMSASPGEKVTMTCSASSSVSYMHWYQQKSSTSPKLWIYDTSKLSSGVPGRFSGSGSGKSYSLTISSMEAEDVATYYCFQGSGYPLFTFGSGTKLEIKR
notes: IgG1,κ chimeric antibody, HEK 293T supernatant; also called 107A9A4D2VH paired with 107A9A4D2VL-1
[1]
  ELISA (OD450 nm): 0.13 OD450
[2]
  FACS (MFI): 42.5 MFI

## B2
[3]
  IC50: 0.731 µg/mL
  molar ratio at IC50: 1.7 molar ratio (:1)

B3: BCMA of K562-BCMA+ medium supernatant (soluble BCMA) (receptor, UniProt Q02223 1-54, looked up)
chain: MLQMAGQCSQNEYFDSLLHACIPCQLRCSSNTPPLTCQRYCNASVTNSVKGTNA
[4]
  IC50: 0.466 µg/mL
  molar ratio at IC50: 10.4 molar ratio (:1)
